Target: the molecule itself
Assay: cryo-EM structure; LDAF1-FLAG/seipin (1–310) sample in PMAL C8, 25 mM HEPES pH 7.4, 150 mM NaCl, 2 mg/ml, PEGylated with MS(PEG)12; 3D classification without symmetry; one class with the luminal domains used; TM region at low resolution

B1: seipin (1–310) (domain or fragment, human, UniProt Q96G97 1-310, looked up)
chain: MVNDPPVPALLWAQEVGQVLAGRARRLLLQFGVLFCTILLLLWVSVFLYGSFYYSYMPTVSHLSPVHFYYRTDCDSSTTSLCSFPVANVSLTKGGRDRVLMYGQPYRVTLELELPESPVNQDLGMFLVTISCYTRGGRIISTSSRSVMLHYRSDLLQMLDTLVFSSLLLFGFAEQKQLLEVELYADYRENSYVPTTGAIIEIHSKRIQLYGAYLRIHAHFTGLRYLLYNFPMTCAFIGVASNFTFLSVIVLFSYMQWVWGGIWPRHRFSLQVNIRKRDNSRKEVQRRISAHQPGPEGQEESTPQSDVTED
notes: seipin, human, residues 1-310; No tag is stated for seipin; It was purified through the FLAG tag of co-expressed LDAF1; The sample was treated with MS(PEG)12 methyl-PEG-NHS-ester before cryo-EM; The introduction calls human seipin an undecamer, citing other work; also called human seipin
**Q.** Does B1 bind?
**A.** binds

— article PMC9122495, “Seipin transmembrane segments critically function in triglyceride nucleation and lipid droplet budding from the membrane” (eLife, 2022)
